Data on 20 sequences can be found in a protein production outcome set (Wang et al. 2014).
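Also: failed if final PepcDB status was selected cloned or expressed and not failed if soluble or beyond.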

This series is described as follows: label from the status in PepcDB records.
With “MTDIIREYYNKNSKNEWLRLNDPYNRLELFSTMYMIKEYFPQEGKILDIGSGPGRYSIELLKRGYEVSLMDLSEKSIDMAKNNIESMGLKANDYICGDALYLDFIKDNTFDGILLMGPMYHVKSREDRIRILENCMRILKPGGIILIAYINSLGVLKVGLSDFPQEYKDINKIYDLFDEKGFSQEESFTETYFTVPEKAISEVNEVGFNILSRAGAESFLSGQAFYMTKYYLEDKEIYFNLLKVATEKCEDERFRDSTEHLIIVAKK”, the protein production result is “failed”.

As to “MTDIMARFVGYTGKVLPDDVTAKLQDLHKKETSQLADVIFTTMIENQRLAKELDRPSCQDTGVIQFLVECGANFPLIGELEALLRESVIKATIDSPLRHNSVETFDEYNTGKNVGKGTPTVFWEIVPNSDQCSIYTYMAGGGCSLPGKAMVLMPGAGYEGVTRFVLDVMTSYGLNACPPLLVGVGVATSVETAALLSKKALMRPIGSHNDNERAALLEKMLEDGINKIGLGPQGMSGNTSVMGVNIENTARHPSTIGVAVNVGCWSHRKGHIVFDKDLNYTITSHKGVAF”, the protein production entry is “failed”.

On to “MTDIVLADRYRLGDVIGTGGMSEVYEATDVLLGRKVAVKMLRADLARDVNFRERFRREAQNSGKLNHPAIVAVYDTGETPRAGLNTPYIVMELVNGRTLRDIVREDGPLTPSQAAHTLIPVCHALQVSHDAGIIHRDIKPANVMITNTGAVKIMDFGIARALDDATSAMTQTSAVIGTAQYLSPEQARGKLADARSDVYALGCVLYETLTGKPPFEGETPFAVAYQHVQEDPVKPSEYIADLSPTAAINVDAVVLTAMAKHPGDRYQTAQEMCADLERLGRNAVTDAARHYVTPTSFATQDPASTTVVPVTQVTELDHAEAGAGIGAGVVPAGAVAGSAAVAGSGGAHAAPRSSNRGLRILAAILAVLVLAVGAGFAIDYFGGGPFSQRSTVTIPKLQNSTQQDAVNQLEKLGLQVNVIEEPNPDIPRGKVIRTNPTDGSNVQRNSTVRLTISSGKEITEVPDLSGKNTADAVKILEAAGLLLDPTVREDSSDTVPKGEIIEVSPAAGSQVSRGSKVSITVSTGVETVRVPVITGMKWDQAEGNLTSLGFKPEVVRVDSVEPAGTVVAVPDEGAEVPKGSSVTVQISNGAMFTVPEITRQTIDDAVRILHDAGWKGNASRLIQAAKVPTVAVTDQNLIASQLPTPGTALRKDAPIEIRLYEFNLAALVPPAQH”, for which the protein production entry is reported as “failed”.

With “MTDLELQQLTQRIAQESFGKSFPYKVVFNQRLKTTGGRYHLNDHHIDINPLMLEEFDEATLIGVIKHELVHYFVHMLNEKPDHRNPHFQQLLRAVGGLRYAPTTSKRRRTPPKLLYQCQGCGLQYPRQRRINTRKYVCSKCRGRLKLL”, the protein production entry is “failed”.

Regarding “MTDLLLDGSEADNAQTVLNAARIELLSPRLANQIAAGEVVERPASVIKELLENSLDSGARRIDIDVEQAGIKLLKVRDDGGGISSDDLPLALARHATSKIRDLEDLERVMSLGFRGEALASISSVARLTLTSRTRDADQAWQVETEGRDMDARVQPAAHPVGTSVEVRDLFFNTPARRKFLKAEKTEFDHLHEVIKRMALARFDVAFHLRHNGKTVLSLHEAHDDTARARRVSAICGPGFLEQALPIEIERNGLHLWGWVGLPTFSRSQADLQYFFVNGRAVRDKLVAHAVRQAYRDVLFNGRHPTFVLFFEVDPAAVDVNVHPTKHEVRFRDGRMVHDFLYGTLHRALGDVRPENQLGGSVPAAAEPRPTGPDAGEFGPQGEMRLANNVLEQPQGEPFARPAGGGSGSGYQYSPRPTTGVPVAEAQSAYREFFAPLPGTTPSALPESPSDIPPLGYALAQLKGIYILAENAHGLVLVDMHAAHERIMYERLKIAMANEGLSGQPLLVPESIAVSQREADCAEEHITTFQRLGFELQRLGPETLAIRQIPALLKQAEANRLVSDVLADLMEYGTSDRVQAHMNELLGTMACHGAIRANRRLAIPEMNGLLRDMENTERSGQCNHGRPTWTQMGLSDLDKLFLRGQ”, the protein production result was “failed”.

As for “MTDNSPPPNGHAQARVRKNNTFLSAVWLVPLIALIAGGWLWVKEIRNRGPVVTLLMDSAEGIEVNNTVIKVLSIDVGRVTRIKLRDDQKGVEVTAQLNADVSGLIRSDTQFWVVKPRIDQSGVTGLGTLLSGSYIAFTPGKSDEAKDVFQVQDIPPVTAIGQSGLRLNLIGKNDRILNVNSPVLYENFMVGQVESAHFDPSDQSVHYTIFIQSPNDKLIHSASRFWLESGINIETTGSGIKLNSAPLPALLSGAISFDSPKTKNSKNVKSEDSFTLYDSRSEVANLPDDRSLYYTAFFKQSVRGLTVGSPVEYKGLNVGVVSDVPYFDRNDSLHLFENGWIPVRIRIEPSRLEINADEQSKEHWKQQFQTALNKGLTATISSNNLLTGSKMIELNDQPSASPKLRPHTVYAGDTVIATQGGGLDDLQVKLADLLDKFDKLPLDKTVAELNGSLAELKSTLKSANAALSSIDKLVGKPQTQNIPNELNQTLKELRTTLQGVSPQSPIYGDVQNTLQSLDKTLKDVQPVINTLKEKPNALIFNSSSKDPIPKGSR”, the protein production entry is on record as “failed”.

With “MTDNTAVRRRYEKSFTERPGFTEDEIEEIREAFNLLDTDGTGTIDPKEIKCAMQSLGLDAKNPMIFRMIADLEKDGYSSIDFEEFMEVITSKLGNKDTREGIQRIFNLFDDDKTGSISLKNLKRVAKELGETLTDEELRDMIDRADSKGEGEISFEDFYTIMTKKSFL”, the protein production entry is “failed”.

On to “MTDQLQHIRKPPRTGKAARSGTQDEIVYAHIFDAILEQRLAPGTKLSEEALGEIFGVSRTIIRRALSRLAHEQVVLLRPNRGAVVASPSIDEARQILFARRTVERAITELATDNATAERLAEL”, for which the protein production result was “failed”.

With “MTDQRWLIDKSALVRLTDSPDMEIWSNRIERGLVHITGVTRLEVGFSAECGEIARREFREPPLSAMPVEYLTPRIEDRALEVQTLLADRGHHRGPSIPDLLIAATAELSGLTVLHVDKDFDAIAALTGQKTERLTHRPPSA”, the protein production entry is reported as “not failed”.

On to “MTDQTYCDRLVQDTPFLTGHGRLSEQQVDRIILQLNRYYPQILTNKEAEKFRNPKASLRVRLCDLLSHLQRSGERDCQEFYRALYIHAQPLHSRLPSRHALQNSDCTELDSGSQSGELSNRGPMSFLAGLGLAVGLALLLYCYPPDPKGLPGTRRVLGFSPVIIDRHVSRYLLAFLADDLGGL”, for which the protein production result is given as “failed”.

For “MTDQVFGKVSKVVCVGAGYVGGPTCAMIAHKCPHITVTVVDMNTAKIAEWNSDKLPIYEPGLDEIVFAARGRNLFFSSDIPKAIAEADLIFISVNTPTKMYGRGKGMAPDLKYVESVSRTIAQYAGGPKIVVEKSTVPVKAAESIGCILREAQKNNENLKFQVLSNPEFLAEGTAMKDLANPDRVLIGGESSPEGLQAVAELVRIYENWVPRNRIITTNTWSSELSKLVANAFLAQRISSINSISAVCEATGAEISEVAHAVGYDTRIGSKFLQASVGFGGSCFQKDVLSLVYLCESLNLPQVADYWQGVININNWQRRRFADKIIAELFNTVTDKKIAIFGFAFKKNTGDTRESSAIHVIKHLMEEHAKLSVYDPKVQKSQMLNDLASVTSAQDVERLITVESDPYAAARGAHAIVVLTEWDEFVELNYSQIHNDMQHPAAIFDGRLILDQKALREIGFRTFAIGTSPDQAYNLFGTAGY”, the protein production entry was “not failed”.

“MTDTASKYAVKLKTNFEDPKWVNRHKFMFNFLDINGNGKITLDEIVSKASDDICAKLGATPAQTQRHQEAVEAFFKKIGLDYGKEVEFPAFVNGWKELAKHDLKLWSQNKKSLIRNWGEAVFDIFDKDGSGSISLDEWKTYGGISGICPSDEDAEKTFKHCDLDNSGKLDVDEMTRQHLGFWYTLDPNADGLYGNFVP”: the protein production result is reported as “not failed”.

Take “MTDWQQALDRHVGVGVRTTRDLIRLIQPEDWDKRPISGKRSVYEVAVHLAVLLEADLRIATGATADEMAQFYAVPVLPEQLVDRLDQSWQYYQDRLMADFSTETTYWGVTDSTTGWLLEAAVHLYHHRSQLLDYLNLLGYDIKLDLFE”: the protein production entry was “not failed”.

For the sequence “MTDYTKLQQVRQWTQDNHVDVTYISNFHTISYLTGFESNPYERTLALFVFADAEPFLFAPALEVEAIKEMGWPYKVFGYLDHENPYALIADHIHAQLTDPKVWALETGNLTLDRFTALKQQFPAAHFDKDLSPYIQQLRLVKTADELEKLNIAGKWADFAFEQGFAAVKAGRTEQQIAAELQYALMKKGIMEMSFDTLVQAGEHAANPHGATNETQVKPNELVLFDLGVMYEGYASDASRTIAYGQPSAKQKEIFDVCLEANLTAQAAIKPGMAAEDVDKIARDIITKAGYGEYFIHRLGHGIGQTDHEFPSIMAGNHMPLVEGMCFSVEPGIYIPGVAGVRIEDCGVVTKEGFKPFTHTPKELKVLDL”, the protein production result is recorded as “failed”.

As for “MTEEKKRGFRIPSSYTVLFIIIAIMAVLTWFIPAGAYETAKGGGVISGTYKTVASNPQGFFDILMAPVRGMLGVEGTDGAIQVSFFILMVGGFLGVVNKTGALDTGIASVVRKNKGREKMLIAILIPLFALGGTTYGMGEETMAFYPLLIPVMIAVGFDSIVAVAIILIGSQIGCLASTINPFATGVAADAAGVSIADGMIWRVIQWVILVGMSIWFVYNYASKIEEDPSKSLVADKEEEHKELFQLQNSGEDLNKRQRNVLTIFTLTFVIMILSLIPWEDFGIKFFTNINTWLTTMPILGGVIGKTMGAFGTWYFPEITMLFIMMGVLVAIVYRMSEEDFFSSFLTGAGEFLGVAMICAIARGIQVIMNGGMITATILHLGETSLSGLSSQVFVILAYIFYLPMSFLIPSTSGLAGATMGIMAPLGQFSNVPAHLVITAFQSASGILNMISPTSAIVMGALALGRVDLGTWWKFIGKFIVMVMLVSVLLLVVATFF”, the protein production entry is given as “not failed”.

In the case of “MTEFPKILMVLGAVIFGIGLFMQVIGRLPGDIFVKKGNVTFFFPVVTCIVISIILSVVFSFFGRMK”, the protein production entry was “failed”.

As to “MTEHCGAIKYFKSNFRRKRCLDFVCLTNLMFGLGSTPHGQVERADENNTLDLNNLPDDPSRDIFPFFEEGGFREKQTKDGKEYECRFCSLKFFKSQALGGHMNRHRQERETESLNKARELVLRNDSFPPHQGPPSFSYHQGDVHIGDLTQFKPMMYPPRHFSLPGSSSILQLQPPYLYPPLSSPFPQHNTNIGNNGTRHQTLTNSVCGGRALPDSSYTFIGAPVANGSRVAPHLPPHHGL”, the protein production entry is “failed”.

“MTEHSSDYYQRLVDESALEEFLTREIGPAETFDVARHEQGHSNETLFVTWGDRELVVRRPPPGQTAETAHDVLREYRVIDALQDTAVPVPPTVTACDDQTIIGSDFYVMARVEGTVIRDDEPARFGSDDARAAVGTELVDTLAAIHEVDPTAVGLSDLGRADGYAKRQVARWGKQLAWAFERTAESRTIPELERVGSWLQDECPDDHPKTLVHGDYKLDNVMFGPGDDPELAAVFDWEMATLGDPRADLGWLLSYWRDAKDPEPEIPDLAMEFIEAPGYLTRTDLVDRWEAQTGLTFEHERFYRTLAVYKLAALGEMFYRRYLEGNADDPFYPLMEDRVPALANRAVRIIEGDEPL”: the protein production entry is given as “failed”.

As for “MTEKEKMLAEKWYDANFDQYLINERARAKDICFELNHTRPSATNKRKELIDQLFQTTTDNVSISIPFDTDYGWNVKLGKNVYVNTNCYFMDGGQITIGDNVFIGPNCGFYTATHPLNFHHRNEGFEKAGPIHIGSNTWFGGHVAVLPGVTIGEGSVIGAGSVVTKDIPPHSLAVGNPCKVVRKIDNDLPSETLNDETIK”, the protein production result is on record as “not failed”.

As to “MTEMHRLLQRQLKKFGFTADGLPQNLESWTQFIAHINKTYYENDQDRYLLERSIDISSKEMRDINAKLEYAQDIAQIGYWHYDADTDTATWSKGLFKILGLPPSNVALNYSSFLDLVHPNDKAGLKNVVEKALKEKEDYDYELRVRNGDNDYKWYRTIARANPHKNEISGVLMDISKRKIIEEQVHELNNKLVSTARLAGMSEVATSILHNVGNILNSVNVSAIILKKNISKIHYKKLSAIKTMLDENINQLSEYLLQNPKGKLILPYLDALSKTLHEEYEENMKESNSLETNINHIKEIIAMQQSLSGLSNLTEKISIHDVILNAVKSVILDKHQIDVRIEIEPDINEFITDKSKLFQILTNLLANAKDSVLLHEANDSRKVVISIGRTEKNHIMIKINDNGIGIQKDNLDRIFSFGFTTKKNGHGFGLHCSAIYARDLGGTLYAESNGNGKGAQFVLDLPINPKTLSTR”, the protein production entry is recorded as “failed”.
